15 sequences from the DeepSol protein solubility set can be followed below.

A short description of the data set: soluble on expression in E. coli; label from the status in PepcDB or PDB records.
As for “MPVERVIDRPTPEEHLLERILATENMDLAWKRVRANKGAPGVDGVTIDAFPERFRPLWGDIRASLATGTYQPQPVLRVEIPKPTGGTRPLGIPTVLDRLIQQATAQVLTPIFDPEFSASSFGFRPGRSAHNAVRQLREYLRQGYRIAVDIDLAKFFDTVNHDLLMTMVGRRVRDKRVLTLIGRYLRAGVEVDGRLEKTRMGVPQGGPLSPLLANILLDHLDKELESRGHKFVRYADDFVILVKSERAGERVMGSVRKYLTNKLKLTVNEDKSKVARSGDLSFLGFVFKGTKILWSDQAYKEFRRRVRKYTGRSWFVSMEYRLNKLSTYLRGWMGYFGIAEAYRDIPEIDGWIRRRVRLCYWKQWRWCRTKIRNLLKLGVQLGTSIRAGLNRNGPWAMSRRLAAQHGMTNQWLKDQGLVSVKELWVKIHYPATARLEHHHHHH”, the “soluble on expression in E. coli” value is listed as “not soluble”.

As for “MHPVILFDGDCLFCHASAHWIAARDRQAVFRFAAQQSIVGQALLAKQEMSAEDSVVLIENGCCYVKSEAVLRIGRRLAWPWNWLAAAGFLIPRLLRDHMYDAIANRRHRLVPKRDHCQLPSPELRARFLDELPQ”, the “soluble on expression in E. coli” value is listed as “not soluble”.

“MGSDKIHHHHHHMTAPMPNLGAVFDTVDPAMAHLAARIDRLILAIDAALTRQLNAILAASEFRALEARWRALDRVLTHAGRDGQVIVRILNVSWRALSRDLDRAVEFDQSHLHKLVYDGEFGMPGGLPFGVLVADYEVSATTDRARGDQVETLSRLAAVAAAAFCPIMLGAAPDLLGVDDFDQIAPYTDLTDAEGRRADPPMIRWRALRDRDDARFIGLVAPRIVLRGPRTRLSPTRADGFTFDEDPHRILSVAGSFAFATTVIAAFRASGWFAAIRGAAQDTDGGGRVAGWPGHDLGTDGHNLSRQSPATLRLTAAQEDALIARGIVPLSSLPLTDEAVFNANPSLHRPTRYDSPVASENARISAMLQYVLCTSRFAHYLKVMMREAIGSVAPPDVIQGHLDDWLRGYCLGNEDAGAELKAEYPLRNAGVEVTPIPGKPGAFAARIHLQPHFQLDDISTSFHLVSEAPAGLERTSA”: the “soluble on expression in E. coli” value is on record as “not soluble”.

As for “MAILIELQDICVDFEQRRVLDNIRLTLTKGNITTLIGPNGAGKSTLVKVILGLQSLSSGKIIRQSGIRIGYVPQKLKLNDTLPLTVNRFLKLAGRFSTQELSEALRLVGGEHLQSSDMHKLSGGETQRVLLARALLQRPDLLVLDEPAQGVDVQGQIDLYDLIHTLRNRFGCAVLMVSHDLHLVMAKTDEVICLQHHVCCSGSPESIAKHPSYLAMFGHRSRDTLAFYQHHHEHHHHDLSGLPVKGKASVCSHHSHGHHKHD”, the “soluble on expression in E. coli” value is “not soluble”.

On to “MLNIQNYSASPHPGIVAERPQTPSASEHVETAVVPSTTEHRGTDIISLSQAATKIHQAQQTLQSTPPISEENNDERTLARQQLTSSLNALAKSGVSLSAEQNENLRSAFSAPTSALFSASPMAQPRTTISDAEIWDMVSQNISAIGDSYLGVYENVVAVYTDFYQAFSDILSKMGGWLLPGKDGNTVKLDVTSLKNDLNSLVNKYNQINSNTVLFPAQSGSGVKVATEAEARQWLSELNLPNSCLKSYGSGYVVTVDLTPLQKMVQDIDGLGAPGKDSKLEMDNAKYQAWQSGFKAQEENMKTTLQTLTQKYSNANSLYDNLVKVLSSTISSSLETAKSFLQGLEHHHHHH”, for which the “soluble on expression in E. coli” value was “soluble”.

For the sequence “MQMCFSKSAQHHSKVKQRNSLLEIMENCFEMMVARCIKIGTVQTLTMLGLLPEVVTISQAEDIYGKRLITEWREKAWIKFYPANNKERGKYYVKRSELETASAMMDLHNKVPDNIIKQLMQLTV”, the “soluble on expression in E. coli” value was “not soluble”.

As for “MKDNEIISLFELRDEHAIEALSDKYHPYCYKIAWNLLTNKEDSEECLNDTWFSVWSLIPPKKPSVLSHFCGRITRNLSIDRLRKKYADRRPDLHMADVLGEMDHLSVTYTIEDQLAEKELLEIINDFLGKMNAEDRDIFVRRYWFFDSIAAIAKRHAMSVGSVKMNLYRSRKKLLKVLKKEGKHL”, the “soluble on expression in E. coli” value is “not soluble”.

As to “MGSDKIHHHHHHMNSKIYYFSGTGNSLVVSNILKETLNGSKEVIPLAIHRKENNIDINEDILVIVFPVYFADVPDIVKSFVEKLNFNINTHIYAIATCNGVAGHSLFTIDKLLKKRGKKLSAGFLINMPGNALITPPDVEEERLKNQTNRVAEIAKCINNLEIGNIEGKNNLKSHIDSVVLRLVGKNMQIATTKFFAENKCNGCGTCKRVCPVENISIVDKKPKWGNECERCLACFHWCPKEAINVKKSFLTNRKKYHHPDITVKDIFLDK”, the “soluble on expression in E. coli” value was “not soluble”.

With “MVAERNKDGRVVFDRGLRAQMMAIDGTWRRPCLIEDVSELGAKLTVEGTVEGLNLKEFFLLLSSTGLAYRRCELSWINGDQIGVTFLRLDRKKKRAAQVENA”, the “soluble on expression in E. coli” value was “not soluble”.

With “MTEKKIDFKKEEKKFYAPKRKPERIFVPEMNFLMVDGKGDPDGEEYQKAVQSLYAIAYTIKMSKMGETRLDGYSDFVVPPLEGFWWSEGKFDLKDRDAWLWTSILRQPDFVTEEVLEWAKEVARKKKPDV”, the “soluble on expression in E. coli” value is recorded as “not soluble”.

“DHVLLITGGTRGIGLLCARHFAECYGVKKLVLTGREQLPPREEWARFKTSNTSLAEKIQAVRELEAKGVQVEMLSLTLSDDAQVEQTLQHIKRTLGPIGGVIHCAGLTDMDTLAFIRKTSDDIQRVLEPKVSGLTTLYRHVCNEPLQFFVLFSSVSAIIPELSAGQADYAMANSYMDYFAEAHQKHAPIISVQWPNWKETGMGEVTNQAYRDSGLLSITNSEGLRFLDQIVSKKFGPVVLPAMANQTNWEPELLMK”: the “soluble on expression in E. coli” value was “soluble”.

Take “GSHMGGIEVLGVKTGVDSFTEVECFLNPQMGNPDEHQKGLSKSLAAEKQFTDDSPDKEQLPCYSVARIPLPNINEDLTCGNILMWEAVTVKTEVIGVTAMLNLHSGTQKTHENGAGKPIQGSNFHFFAVGGEPLELQGVLANYRTKYPAQTVTPKNATVDSQQMNTDHKAVLDKDNAYPVECWVPDPSKNENTRYFGTYTGGENVPPVLHITNTATTVLLDEQGVGPLCKADSLYVSAVDICGLFTNTSGTQQWKGLPRYFKITLRKRSVKN”: the “soluble on expression in E. coli” value is listed as “soluble”.

In the case of “MGSDKIHHHHHHMTEGLTIGIDVGGTNLRFGVFRGNELLDSTRSEVDLREKCRQAPDPEGAAALVTTLLTEGIADLRRHHPNIARVGIAFPGFIDDDGVLLQSPNIPQLIQFDLQTAVGAACQLPVLVENDANAAGYGEFWEERQEHPELQNLLYVGLGTGVGGGWIHQGRPWRGDHGSAMEIGHIIVVPGGRRCGCGNQGCLEQYASARGVQSTYVELTGTAPDAMVIAQMAGDAHSEAASAFRMAGGYLGQVLAHVVKVTDVAVVRIGGGMSAAWDRFAPAMLQRLDADMIPALRGNVEVKRGNDDDLAGMRGAALLADQEFLHS”, the “soluble on expression in E. coli” value was “not soluble”.

As for “ADYVLAIDQGTTSSRAIVFDHSGEIYSTGQLEHDQIFPRAGWVEHNPEQIWNNVREVVGLALTRGNLTHEDIAAVGITNQRETAVVWDKTTGKPVYNAIVWQDTRTQKIVDELGGDEGAEKYKSIVGLPLATYFSGPKIKWILDNVEGAREKAEKGDLLFGNTDTWVLWNMTGGTEGGVHVTDVTNASRTMLMDLDTLSWREDIAADMGIPLSMLPDIRSSSEVYGHGRPRGLVPGVPIAGILGDQQAATFGQACFEVGQAKNTYGTGNFLLLNTGTEKVMSKNGLLTTVCYKIGDAPAVYALEGSIAVTGSLVQWLRDNLGMFEDAPDVEWLAGKVQDNGGAYFVPAFSGLFAPYWRPDARGALVGLTRYVNRNHIARAALEATAFQSREVVDAMNADSGVDLTELRVDGGMVANELLMQFQADQLGVDVVRPKVAETTALGAAYAAGIAVGFWKGEQDVIDNWAEDKRWSPSMESGERERLYRNWKKAVTKTMEWVDEDVEQ”, the “soluble on expression in E. coli” value is recorded as “soluble”.

As for “MGSDKIHHHHHHMSTFLESLRDILSAGESIAMATIANHSGSTPRGDGAQMVIRPDGSILGTIGGGLVEARCIEAGRDLLQRPPGSALFCAFALDNTTAAEAAMVCGGHLTVIIEHAGACHDNVNGCHTGEQTGCSAGHGKGLADILLHACDRVADGLSASFGVEYVWDSPSGQDGANALDKADISGRATTRQTFRPMRAAVHTTGEDSDGQRLSGASTGLALSESGCRLDVMLVPPPRLVIFGAGHVAVPTAHFGHAVGFSVTVIDDRPDFATPERFPDAHLRIPPSFAEAFDGLHVTPDTYLVIMTRGHLHDGEILEQALKTPARYIGMIGSRRKRDALYAELQEQGLDDATLARCHCPIGLDIQAQTPEEIGISIMAELVMHRASA”, the “soluble on expression in E. coli” value is listed as “not soluble”.
